Test results: paper PMC4041433
Like-named read-outs stand apart in the source and are kept apart here.

Legend:
[1] = molecular target: Aeropyrum pernix ThermoDBP-related protein 2 (apeThermoDBP-RP2) (Aeropyrum pernix); assay: crystal structure
[2] = molecular target: Aeropyrum pernix ThermoDBP-related protein 2 (apeThermoDBP-RP2) (Aeropyrum pernix); assay: crystal structure; remark: listed apart in the source
[3] = molecular target: Aeropyrum pernix ThermoDBP-related protein 2 (apeThermoDBP-RP2) (Aeropyrum pernix); assay: SEC
[4] = molecular target: Pyrococcus furiosus ThermoDBP-related protein 1 (pfuThermoDBP-RP1) (Pyrococcus furiosus); assay: crystal structure
[5] = molecular target: Pyrococcus furiosus ThermoDBP-related protein 1 (pfuThermoDBP-RP1) (Pyrococcus furiosus); assay: SEC
[6] = molecular target: T1, apeThermoDBP-RP2 (Aeropyrum pernix, UniProt Q9YAS7 1-234); assay: EMSA
T1 sequence: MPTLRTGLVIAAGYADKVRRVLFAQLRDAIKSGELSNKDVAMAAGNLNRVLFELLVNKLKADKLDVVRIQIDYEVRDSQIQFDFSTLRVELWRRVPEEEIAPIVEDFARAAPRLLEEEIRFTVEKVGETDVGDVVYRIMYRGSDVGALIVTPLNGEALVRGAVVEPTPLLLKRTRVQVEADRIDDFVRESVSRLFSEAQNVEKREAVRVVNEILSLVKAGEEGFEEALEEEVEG

[7] = molecular target: T1, apeThermoDBP-RP2; assay: EMSA; remark: listed apart in the source
[8] = molecular target: T1, apeThermoDBP-RP2; assay: EMSA; remark: listed apart in the source
[9] = molecular target: T1, apeThermoDBP-RP2; assay: EMSA; remark: listed apart in the source

“Aeropyrum pernix ThermoDBP-related protein 2 (apeThermoDBP-RP2) (natural protein)” was tested, and the stoichiometry N [1] was 4, the stoichiometry N [2] was 4 and the stoichiometry N [3] was 4.

“Pyrococcus furiosus ThermoDBP-related protein 1 (pfuThermoDBP-RP1) (natural protein)” gave a stoichiometry N [4] of 4 and a stoichiometry N [5] of 4.

CTTGCTAGGACGGATCCCTCGAGGTTTTTTTTTTTTTTTTTTTT (ssDNA) [45-mer ssDNA]: binds [6].

TTTTTTTTTTTTTTTTTTTT (ssDNA) [dT20]: binds [7].

TTTTTTTTTTTTTTTTTTTTTTTTTTTTTT (ssDNA) [dT30]: binds [8].

TTTTTTTTTTTTTTTTTTTTTTTTTTTTTTTTTTT (ssDNA) [dT35]: binds [9].

TTTTTTTTTTTTTTT (ssDNA) [dT15]: binds [7].

TTTTTTTTTTTTTTTTTTTTTTTTT (ssDNA) [dT25]: binds [7].
